Measurements: paper doi:10.1101/2025.05.20.653754 (bioRxiv, 2025)
One block for each molecule: values may come before it.

Key:
[1] = target: full-length Physcomitrium patens DUR3 (PpDUR3) fused with C-terminal GFP (Physcomitrium patens); experiment: SEC
[2] = target: full-length maize DUR3 fused with C-terminal GFP (Zea mays L.); experiment: SEC
[3] = target: maize DUR3 (ZmDUR3) with a C-terminal Strep-tag (Zea mays L.); experiment: cryo-EM structure
[4] = target: the molecule itself; experiment: SEC

Molecule: full-length maize DUR3 fused with C-terminal GFP (natural protein)
stoichiometry N [2]: 4

B1: full-length rice DUR3 (OsDUR3) fused with C-terminal GFP (natural protein, Oryza sativa, UniProt Q7XBS0 1-721, looked up)
chain: MASGVCPPAELGFGAEYYSVVNGVCSRAGSYFGGRPVLTQAVGYAVVLGFGAFFALFTSFLVWLEKRYVGSQHTSEWFNTAGRSVKTGLIASVIVSQWTWAATILQSSNVAWQYGVSGPFWYASGATIQVLLFGVMAIEIKRKAPNAHTVCEIVRARWGTPAHLVFLTFCLLTNVIVTAMLLLGGSAVVNALTGVNVYAASFLIPLGVVVYTLAGGLKATFLASYIHSVVVHAVLVVFVFLVYTSSSKLGSPRVVYDRLMAVASAARDCSADLSRNGQACGPVAGNFKGSYLTMLSSGGLVFGIINIVGNFGTVFVDNGYWMSAIAARPSSTHKGYLLGGLVWFAVPFSLATSLGLGALALDLPLTAAEAAKGLVPPATATALMGKSGSVLLLTMLFMAVTSAGSAELVAVSSLCTYDIYRTYLNPGASGKQILRVSRAVVLGFGCFMGVLAVVLNVAGVSLGWMYLAMGVIVGSAVIPIALLLLWSKANAVGAMGGAVSGCALGVAVWLTVAKVQYGRVNLDTTGRNAPMLAGNLVSILVGGAVHAACSLLRPQHYDWGTSREMITTVESVHAALDDELKEERLVHAKRWIVRWGLVFTAVIVVAWPALSLPARRYSLGYFTLWAAVAIAWGTVGSVVIILLPVAESWTTITKVCAGMFTNDAVYDRLDDVNLRLRAIMGAMPEAEKRYRQLHETEMHPAGTHPANDDDDDNNNNQMMHS
stoichiometry N [4]: 4

B2: full-length Arabidopsis thaliana DUR3 fused with C-terminal GFP (natural protein, UniProt F4KD71 1-704, looked up)
chain: MATCPPFDFSTKYYDGDGGCQRQSSFFGGTTVLDQGVGYAVILGFGAFFAVFTSFLVWLEKRYVGARHTSEWFNTAGRNVKTGLIASVIVSQWTWAATILQSSNVAWQYGVSGPFWYASGATIQVLLFGVMAIEIKRKAPNAHTVCEIVKARWGTATHIVFLVFCLATNVVVTAMLLLGGSAVVNALTGVNLYAASFLIPLGVVVYTLAGGLKATFLASYVHSVIVHVALVVFVFLVYTSSKELGSPSVVYDRLKDMVAKSRSCTEPLSHHGQACGPVDGNFRGSYLTMLSSGGAVFGLINIVGNFGTVFVDNGYWVSAIAARPSSTHKGYLLGGLVWFAVPFSLATSLGLGALALDLPISKDEADRGLVPPATAIALMGKSGSLLLLTMLFMAVTSAGSSELIAVSSLFTYDIYRTYINPRATGRQILKISRCAVLGFGCFMGILAVVLNKAGVSLGWMYLAMGVLIGSAVIPIAFMLLWSKANAFGAILGATSGCVFGIITWLTTAKTQYGRVDLDSTGKNGPMLAGNLVAILTGGLIHAVCSLVRPQNYDWSTTREIKVVEAYASGDEDVDVPAEELREEKLRRAKAWIVKWGLVFTILIVVIWPVLSLPARVFSRGYFWFWAIVAIAWGTIGSIVIIGLPLVESWDTIKSVCMGMFTNDRVMKKLDDLNHRLRALTMAVPEAEKIYLLELEKTKKNDEEG
stoichiometry N [4]: 4

The remaining lines, values ahead:

stoichiometry N [1]: 4
Molecule: full-length Physcomitrium patens DUR3 (PpDUR3) fused with C-terminal GFP (natural protein)

stoichiometry N [3]: 4
Molecule: maize DUR3 (ZmDUR3) with a C-terminal Strep-tag (natural protein)
